The values that follow come from US20170327596A1.

Assay [1] deals with pHuD peptide presented by HLA-A2 on T2 cells (human). Put plainly: cell-based or functional assay.
For assay [2], the target named is HLA/pTax complex (HLA-A0201 with the pTax peptide of HTLV-1 Tax), HLA/peptide complex used in surface plasmon resonance (human). Put plainly: surface plasmon resonance, soluble TCR and HLA/peptide complex. In general terms: Surface plasmon resonance follows binding to a sensor surface in real time, without labels.
The target of assay [3] is HLA/pHuD complex (HLA-A0201 with the modified peptide pHuD), HLA/peptide complex used in surface plasmon resonance (human). Described as above.

Take “Tax-TCR expressed on transduced Jurkat cells or primary human T cells (pMP71 retroviral construct)”: in assay [1], the kinetic of CD107 upregulation amounted to 4 h and the peptide needed to trigger a CD107 response is 10 fold.
By Kd is commonly meant the equilibrium constant for the complex coming apart. In assay [2], “wild type Tax-TCR, soluble TCR molecule (HLA-A0201-restricted TCR specific for the pTax peptide of HTLV-1 Tax)” showed a Kd of 1.8 µM and a half-life t1/2 of 9.3 s. The substance further had a Kd in assay [3] of 123 µM.
